Results on eight molecules are retold here after patent US20230235013A1 (MABSOLVE, published 2023).

Test [1] concerns the target T1, Histidine-tagged recombinant human FcγRI (CD64) (human, UniProt P12314 16-288, limits assumed).
T1 construct: bought
The experiment in a line: SPR, His-FcγRI captured; Expt 2.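 Further: biacore T200 SPR at 25 °C, Fc-variant antibodies at 100 µg/mL flowed 1 min over anti-His-captured receptor, signal read near injection end minus third buffer blank; antibody analyte injected at 100 µg/mL for 1 min.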

Test [2] deals with T1, Histidine-tagged recombinant human …. The experiment in a line: SPR, His-FcγRI captured; Expt 3.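 Further: biacore T200 SPR at 25 °C, Fc-variant antibodies at 100 µg/mL flowed 1 min over anti-His-captured FcγRI, signal taken just before injection end minus a buffer blank cycle; antibody analyte injected at 100 µg/mL for 1 min.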 A general note: In SPR one partner is held on a chip, and binding of the other changes the refractive index at the surface.
For test [3] the target is unchanged. The experiment in a line: SPR, His-FcγRI captured; Expt 1.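 Further: SPR at 25 °C on anti-His antibody chip capturing FcγRI, Fc-variant antibodies injected at 100 µg/mL for 1 min, signal near end of injection minus buffer blank.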
The next test concerns the target T2, human FcγRIIIA (F158) (human, UniProt P08637 17-208).
T2 construct: bought; F158 allele
The experiment in a line: SPR, FcγRIIIA captured. Further: test concentration or dose not given here.

For test [4], the target named is T1, Histidine-tagged recombinant human …. The experiment in a line: SPR, His-FcγRI captured; mean.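 Further: biacore T200 SPR at 25 °C, anti-His surface capturing FcγRI, Fc-variant antibodies injected at 100 µg/mL for 1 min, signal near injection end minus third buffer blank, three repeats.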

T2 sequence (P08637 17-208 limits assumed): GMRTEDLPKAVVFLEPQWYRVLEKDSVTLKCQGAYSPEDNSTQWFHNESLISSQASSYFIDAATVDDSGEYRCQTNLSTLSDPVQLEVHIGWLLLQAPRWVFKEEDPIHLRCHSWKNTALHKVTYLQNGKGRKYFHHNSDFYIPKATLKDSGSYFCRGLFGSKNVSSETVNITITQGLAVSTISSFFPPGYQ

B1: anti-CD20 human IgG1 L234G/L235S/G236R (antibody)
heavy: QVQLQQPGAELVKPGASVKMSCKASGYTFTSYNMHWVKQTPGRGLEWIGAIYPGNGDTSYNQKFKGKATLTADKSSSTAYMQLSSLTSEDSAVYYCARSTYYGGDWYFNVWGAGTTVTVSSASTKGPSVFPLAPSSKSTSGGTAALGCLVKDYFPEPVTVSWNSGALTSGVHTFPAVLQSSGLYSLSSVVTVPSSSLGTQTYICNVNHKPSNTKVDKKVEPKSCDKTHTCPPCPAPEGSRGPSVFLFPPKPKDTLMISRTPEVTCVVVDVSHEDPEVKFNWYVDGVEVHNAKTKPREEQYNSTYRVVSVLTVLHQDWLNGKEYKCKVSNKALPAPIEKTISKAKGQPREPQVYTLPPSRDELTKNQVSLTCLVKGFYPSDIAVEWESNGQPENNYKTTPPVLDSDGSFFLYSKLTVDKSRWQQGNVFSCSVMHEALHNHYTQKSLSLSPGK
light: QIVLSQSPAILSASPGEKVTMTCRASSSVSYIHWFQQKPGSSPKPWIYATSNLASGVPVRFSGSGSGTSYSLTISRVEAEDAATYYCQQWTSNPPTFGGGTKLEIKRTVAAPSVFIFPPSDEQLKSGTASVVCLLNNFYPREAKVQWKVDNALQSGNSQESVTEQDSKDSTYSLSSTLTLSKADYEKHKVYACEVTHQGLSSPVTKSFNRGEC
notes: also called 2-19; 1-59
As to B1, the “Corrected response (RU)” value in test [1] is 2.7 RU; in test [2], 3.1 RU; in test [3] it was -0.1 RU; with human FcγRIIIA (F158) it was 5.8 RU.

B2: anti-CD20 human IgG1 L234T/L235T/G236R (antibody)
heavy: QVQLQQPGAELVKPGASVKMSCKASGYTFTSYNMHWVKQTPGRGLEWIGAIYPGNGDTSYNQKFKGKATLTADKSSSTAYMQLSSLTSEDSAVYYCARSTYYGGDWYFNVWGAGTTVTVSSASTKGPSVFPLAPSSKSTSGGTAALGCLVKDYFPEPVTVSWNSGALTSGVHTFPAVLQSSGLYSLSSVVTVPSSSLGTQTYICNVNHKPSNTKVDKKVEPKSCDKTHTCPPCPAPETTRGPSVFLFPPKPKDTLMISRTPEVTCVVVDVSHEDPEVKFNWYVDGVEVHNAKTKPREEQYNSTYRVVSVLTVLHQDWLNGKEYKCKVSNKALPAPIEKTISKAKGQPREPQVYTLPPSRDELTKNQVSLTCLVKGFYPSDIAVEWESNGQPENNYKTTPPVLDSDGSFFLYSKLTVDKSRWQQGNVFSCSVMHEALHNHYTQKSLSLSPGK
light: QIVLSQSPAILSASPGEKVTMTCRASSSVSYIHWFQQKPGSSPKPWIYATSNLASGVPVRFSGSGSGTSYSLTISRVEAEDAATYYCQQWTSNPPTFGGGTKLEIKRTVAAPSVFIFPPSDEQLKSGTASVVCLLNNFYPREAKVQWKVDNALQSGNSQESVTEQDSKDSTYSLSSTLTLSKADYEKHKVYACEVTHQGLSSPVTKSFNRGEC
notes: also called 2-63; 1-165
In the case of B2, the “Corrected response (RU)” value was 1.3 RU in test [3] and 17.1 RU with human FcγRIIIA (F158).

B3: anti-CD20 human IgG1 L234K/L235S/G236R (antibody)
heavy: QVQLQQPGAELVKPGASVKMSCKASGYTFTSYNMHWVKQTPGRGLEWIGAIYPGNGDTSYNQKFKGKATLTADKSSSTAYMQLSSLTSEDSAVYYCARSTYYGGDWYFNVWGAGTTVTVSSASTKGPSVFPLAPSSKSTSGGTAALGCLVKDYFPEPVTVSWNSGALTSGVHTFPAVLQSSGLYSLSSVVTVPSSSLGTQTYICNVNHKPSNTKVDKKVEPKSCDKTHTCPPCPAPEKSRGPSVFLFPPKPKDTLMISRTPEVTCVVVDVSHEDPEVKFNWYVDGVEVHNAKTKPREEQYNSTYRVVSVLTVLHQDWLNGKEYKCKVSNKALPAPIEKTISKAKGQPREPQVYTLPPSRDELTKNQVSLTCLVKGFYPSDIAVEWESNGQPENNYKTTPPVLDSDGSFFLYSKLTVDKSRWQQGNVFSCSVMHEALHNHYTQKSLSLSPGK
light: QIVLSQSPAILSASPGEKVTMTCRASSSVSYIHWFQQKPGSSPKPWIYATSNLASGVPVRFSGSGSGTSYSLTISRVEAEDAATYYCQQWTSNPPTFGGGTKLEIKRTVAAPSVFIFPPSDEQLKSGTASVVCLLNNFYPREAKVQWKVDNALQSGNSQESVTEQDSKDSTYSLSSTLTLSKADYEKHKVYACEVTHQGLSSPVTKSFNRGEC
notes: also called 2-24; 1-89
As for B3, the “Corrected response (RU)” value in test [1] is 1.1 RU; in test [2], 4.1 RU; in test [3], -1.7 RU; with human FcγRIIIA (F158), 7.3 RU.

B4: anti-CD20 human IgG1 L234Q/L235A/G236R (antibody)
heavy: not shown
light: QIVLSQSPAILSASPGEKVTMTCRASSSVSYIHWFQQKPGSSPKPWIYATSNLASGVPVRFSGSGSGTSYSLTISRVEAEDAATYYCQQWTSNPPTFGGGTKLEIKRTVAAPSVFIFPPSDEQLKSGTASVVCLLNNFYPREAKVQWKVDNALQSGNSQESVTEQDSKDSTYSLSSTLTLSKADYEKHKVYACEVTHQGLSSPVTKSFNRGEC
notes: also called 2-27
Regarding B4, the “Corrected response (RU)” value in test [2] is 3.6 RU; with human FcγRIIIA (F158), 4.4 RU. Besides, in test [4], the “Corrected response (RU), Mean” value worked out at 2.2 RU.

B5: anti-CD20 human IgG1 L234S/L235G/G236R (antibody)
heavy: QVQLQQPGAELVKPGASVKMSCKASGYTFTSYNMHWVKQTPGRGLEWIGAIYPGNGDTSYNQKFKGKATLTADKSSSTAYMQLSSLTSEDSAVYYCARSTYYGGDWYFNVWGAGTTVTVSSASTKGPSVFPLAPSSKSTSGGTAALGCLVKDYFPEPVTVSWNSGALTSGVHTFPAVLQSSGLYSLSSVVTVPSSSLGTQTYICNVNHKPSNTKVDKKVEPKSCDKTHTCPPCPAPESGRGPSVFLFPPKPKDTLMISRTPEVTCVVVDVSHEDPEVKFNWYVDGVEVHNAKTKPREEQYNSTYRVVSVLTVLHQDWLNGKEYKCKVSNKALPAPIEKTISKAKGQPREPQVYTLPPSRDELTKNQVSLTCLVKGFYPSDIAVEWESNGQPENNYKTTPPVLDSDGSFFLYSKLTVDKSRWQQGNVFSCSVMHEALHNHYTQKSLSLSPGK
light: QIVLSQSPAILSASPGEKVTMTCRASSSVSYIHWFQQKPGSSPKPWIYATSNLASGVPVRFSGSGSGTSYSLTISRVEAEDAATYYCQQWTSNPPTFGGGTKLEIKRTVAAPSVFIFPPSDEQLKSGTASVVCLLNNFYPREAKVQWKVDNALQSGNSQESVTEQDSKDSTYSLSSTLTLSKADYEKHKVYACEVTHQGLSSPVTKSFNRGEC
notes: also called 2-47; 1-140
Regarding B5, the “Corrected response (RU)” value was found to be 3.7 RU in test [2], 2.6 RU in test [3] and 3.8 RU in the test with human FcγRIIIA (F158). The “Corrected response (RU), Mean” value in test [4] worked out at 2.6 RU.

B6: anti-CD20 human IgG1 L234K/L235R/G236R (antibody)
heavy: QVQLQQPGAELVKPGASVKMSCKASGYTFTSYNMHWVKQTPGRGLEWIGAIYPGNGDTSYNQKFKGKATLTADKSSSTAYMQLSSLTSEDSAVYYCARSTYYGGDWYFNVWGAGTTVTVSSASTKGPSVFPLAPSSKSTSGGTAALGCLVKDYFPEPVTVSWNSGALTSGVHTFPAVLQSSGLYSLSSVVTVPSSSLGTQTYICNVNHKPSNTKVDKKVEPKSCDKTHTCPPCPAPEKRRGPSVFLFPPKPKDTLMISRTPEVTCVVVDVSHEDPEVKFNWYVDGVEVHNAKTKPREEQYNSTYRVVSVLTVLHQDWLNGKEYKCKVSNKALPAPIEKTISKAKGQPREPQVYTLPPSRDELTKNQVSLTCLVKGFYPSDIAVEWESNGQPENNYKTTPPVLDSDGSFFLYSKLTVDKSRWQQGNVFSCSVMHEALHNHYTQKSLSLSPGK
light: QIVLSQSPAILSASPGEKVTMTCRASSSVSYIHWFQQKPGSSPKPWIYATSNLASGVPVRFSGSGSGTSYSLTISRVEAEDAATYYCQQWTSNPPTFGGGTKLEIKRTVAAPSVFIFPPSDEQLKSGTASVVCLLNNFYPREAKVQWKVDNALQSGNSQESVTEQDSKDSTYSLSSTLTLSKADYEKHKVYACEVTHQGLSSPVTKSFNRGEC
notes: also called 2-23; 1-88
As for B6, the “Corrected response (RU)” value was determined as 3.2 RU in test [2], 0.6 RU in test [3] and 7.1 RU in the test with human FcγRIIIA (F158). Also, in test [4], the “Corrected response (RU), Mean” value was 2.2 RU.

B7: anti-CD20 human IgG1 L234R/L235K/G236R (antibody)
heavy: QVQLQQPGAELVKPGASVKMSCKASGYTFTSYNMHWVKQTPGRGLEWIGAIYPGNGDTSYNQKFKGKATLTADKSSSTAYMQLSSLTSEDSAVYYCARSTYYGGDWYFNVWGAGTTVTVSSASTKGPSVFPLAPSSKSTSGGTAALGCLVKDYFPEPVTVSWNSGALTSGVHTFPAVLQSSGLYSLSSVVTVPSSSLGTQTYICNVNHKPSNTKVDKKVEPKSCDKTHTCPPCPAPERKRGPSVFLFPPKPKDTLMISRTPEVTCVVVDVSHEDPEVKFNWYVDGVEVHNAKTKPREEQYNSTYRVVSVLTVLHQDWLNGKEYKCKVSNKALPAPIEKTISKAKGQPREPQVYTLPPSRDELTKNQVSLTCLVKGFYPSDIAVEWESNGQPENNYKTTPPVLDSDGSFFLYSKLTVDKSRWQQGNVFSCSVMHEALHNHYTQKSLSLSPGK
light: QIVLSQSPAILSASPGEKVTMTCRASSSVSYIHWFQQKPGSSPKPWIYATSNLASGVPVRFSGSGSGTSYSLTISRVEAEDAATYYCQQWTSNPPTFGGGTKLEIKRTVAAPSVFIFPPSDEQLKSGTASVVCLLNNFYPREAKVQWKVDNALQSGNSQESVTEQDSKDSTYSLSSTLTLSKADYEKHKVYACEVTHQGLSSPVTKSFNRGEC
notes: also called 2-40
Regarding B7, the “Corrected response (RU)” value in test [1] was determined as 2.4 RU; in test [2], 3.9 RU; in test [3] it was 0 RU; in the test with human FcγRIIIA (F158) it was 4.4 RU.

B8: anti-CD20 human IgG1 L234S/L235R/G236R (antibody)
heavy: QVQLQQPGAELVKPGASVKMSCKASGYTFTSYNMHWVKQTPGRGLEWIGAIYPGNGDTSYNQKFKGKATLTADKSSSTAYMQLSSLTSEDSAVYYCARSTYYGGDWYFNVWGAGTTVTVSSASTKGPSVFPLAPSSKSTSGGTAALGCLVKDYFPEPVTVSWNSGALTSGVHTFPAVLQSSGLYSLSSVVTVPSSSLGTQTYICNVNHKPSNTKVDKKVEPKSCDKTHTCPPCPAPESRRGPSVFLFPPKPKDTLMISRTPEVTCVVVDVSHEDPEVKFNWYVDGVEVHNAKTKPREEQYNSTYRVVSVLTVLHQDWLNGKEYKCKVSNKALPAPIEKTISKAKGQPREPQVYTLPPSRDELTKNQVSLTCLVKGFYPSDIAVEWESNGQPENNYKTTPPVLDSDGSFFLYSKLTVDKSRWQQGNVFSCSVMHEALHNHYTQKSLSLSPGK
light: QIVLSQSPAILSASPGEKVTMTCRASSSVSYIHWFQQKPGSSPKPWIYATSNLASGVPVRFSGSGSGTSYSLTISRVEAEDAATYYCQQWTSNPPTFGGGTKLEIKRTVAAPSVFIFPPSDEQLKSGTASVVCLLNNFYPREAKVQWKVDNALQSGNSQESVTEQDSKDSTYSLSSTLTLSKADYEKHKVYACEVTHQGLSSPVTKSFNRGEC
notes: also called 2-51
Turning to B8, the “Corrected response (RU)” value in test [2] was 1.6 RU; in test [3], -1.1 RU; with human FcγRIIIA (F158), 2.4 RU. In test [4], the “Corrected response (RU), Mean” value turned out to be 0.8 RU.
